Measurements reported in patent US20020012942A1, “POLYPEPTIDES WITH A4 INTEGRIN SUBUNIT RELATED ACTIVITY” (Regents of the University of Minnesota, priority 1998, published 2002).
Like-named read-outs stand apart in the source and are kept apart here. Where no end group is shown, it is not given here.

Legend:
[1] = tested on: A375SM human melanoma cells; test: Trypan blue exclusion assay; format: cell-based
[2] = tested on: A375SM human melanoma cells; test: Cell adhesion assay: A375SM melanoma cell adhesion to substrata coated with CS1/OVA; format: cell-based; conditions: A375SM cells on coated substrata
Method: Cell adhesion assays were performed as previously described in Iida et al., J. Cell Biol., 118, 431-444 (1992) with minor modifications. Ligands were diluted in PBS, and 50 μl aliquots were dispersed in triplicate into Immulon-1 polystyrene microtiter wells. The wells were incubated at 37° C. overnight, and nonspecific binding sites on plastic were then blocked by treating the wells with 200 ul of PBS/BSA.
Subconfluent A375SM human melanoma cells which had been radiolabeled overnight with ^3H-thymidine (3HTdR, specific activity 6.7 Ci/mmol; NEN Research Products, Boston, Mass.), were harvested by rinsing with 1 mM EDTA, washed two times with EMEM/BSA (EMEM containing 2 mg/ml BSA and 0.15 mM Hepes, pH 7.2) and adjusted to a concentration of […] in the same medium. Aliquots of 100 ul of the cell suspension were dispensed into the wells and the cells were incubated at 37° C. for 30 min. The assays were terminated by aspirating loosely bound and unbound cells from the wells, washing the wells three times, and solubilizing the bound cells in 0.5 N NaOH containing 1% SDS. Bound radioactivity, determined in a Beckman Model 3801 Liquid Scintillation Counter, was used to calculate the percentage of cells which remained adherent to each substratum. Unless otherwise indicated, the data represent the mean of triplicate determinations. […]

[3] = biological target: MPG/NG2 chondroitin sulfate proteoglycan (human) (UniProt Q6UVK1); test: SG1 peptide affinity column with purified MPG/NG2, linear NaCl gradient 15 mM to 1 M
CD44 proteoglycan = CD44 proteoglycan (human, UniProt P16070-12 21-361, limits assumed); test: SG1 peptide affinity column with 125I-labeled melanoma cell lysate; pooled eluate immunoprecipitated with anti-CD44
Method: Peptide-affinity chromatography was performed according to the methods described in Iida et al., J. Cell Biol., 118, 431-444 (1992). SG1 was immobilized on CH-Spharose and blocked using standard methods as described in the manufacturer's instruction. (available from Pharmacia). Human melanoma cells were surface radiolabeled with ¹²⁵I using lactoperoxidase and extracted as described in Iida et al., Cancer Res., 55, 2177-2185 (1995). Cells were extracted with 50 mM Tris-HCl (pH 7.3) containing 50 mM β-octylglucoside, 15 mM NaCl, 1 mM Ca²+, 1 mM Mg²+, 1 mM Mn²+, 1 mM PMSF, and 1 mM NEM (extraction buffer) and then centrifuged at 36500 rpm for 1 h at 4° C. The cell lysates were first precleared by incubating with a mock-column, where no peptide was immobilized, and then applied on the SG1 column. The column was extensively washed with the extraction buffer and then bound proteins were subsequently eluted by a linear gradient of sodium chloride (15 mM to 1 M). Each fraction was counted by r-counter and positive fractions were pooled and immunoprecipitated as described below.
In order to study the function of SG1 site in α4β1 integrin, affinity chromatography was performed using immobilized SG1 polypeptide. […] Open circles represent the radioactivity in each fraction and the solid line represents the concentration of NaCl in each fraction. […]

Sequence of MPG/NG2 chondroitin sulfate proteoglycan (human) (Q6UVK1 30-2322): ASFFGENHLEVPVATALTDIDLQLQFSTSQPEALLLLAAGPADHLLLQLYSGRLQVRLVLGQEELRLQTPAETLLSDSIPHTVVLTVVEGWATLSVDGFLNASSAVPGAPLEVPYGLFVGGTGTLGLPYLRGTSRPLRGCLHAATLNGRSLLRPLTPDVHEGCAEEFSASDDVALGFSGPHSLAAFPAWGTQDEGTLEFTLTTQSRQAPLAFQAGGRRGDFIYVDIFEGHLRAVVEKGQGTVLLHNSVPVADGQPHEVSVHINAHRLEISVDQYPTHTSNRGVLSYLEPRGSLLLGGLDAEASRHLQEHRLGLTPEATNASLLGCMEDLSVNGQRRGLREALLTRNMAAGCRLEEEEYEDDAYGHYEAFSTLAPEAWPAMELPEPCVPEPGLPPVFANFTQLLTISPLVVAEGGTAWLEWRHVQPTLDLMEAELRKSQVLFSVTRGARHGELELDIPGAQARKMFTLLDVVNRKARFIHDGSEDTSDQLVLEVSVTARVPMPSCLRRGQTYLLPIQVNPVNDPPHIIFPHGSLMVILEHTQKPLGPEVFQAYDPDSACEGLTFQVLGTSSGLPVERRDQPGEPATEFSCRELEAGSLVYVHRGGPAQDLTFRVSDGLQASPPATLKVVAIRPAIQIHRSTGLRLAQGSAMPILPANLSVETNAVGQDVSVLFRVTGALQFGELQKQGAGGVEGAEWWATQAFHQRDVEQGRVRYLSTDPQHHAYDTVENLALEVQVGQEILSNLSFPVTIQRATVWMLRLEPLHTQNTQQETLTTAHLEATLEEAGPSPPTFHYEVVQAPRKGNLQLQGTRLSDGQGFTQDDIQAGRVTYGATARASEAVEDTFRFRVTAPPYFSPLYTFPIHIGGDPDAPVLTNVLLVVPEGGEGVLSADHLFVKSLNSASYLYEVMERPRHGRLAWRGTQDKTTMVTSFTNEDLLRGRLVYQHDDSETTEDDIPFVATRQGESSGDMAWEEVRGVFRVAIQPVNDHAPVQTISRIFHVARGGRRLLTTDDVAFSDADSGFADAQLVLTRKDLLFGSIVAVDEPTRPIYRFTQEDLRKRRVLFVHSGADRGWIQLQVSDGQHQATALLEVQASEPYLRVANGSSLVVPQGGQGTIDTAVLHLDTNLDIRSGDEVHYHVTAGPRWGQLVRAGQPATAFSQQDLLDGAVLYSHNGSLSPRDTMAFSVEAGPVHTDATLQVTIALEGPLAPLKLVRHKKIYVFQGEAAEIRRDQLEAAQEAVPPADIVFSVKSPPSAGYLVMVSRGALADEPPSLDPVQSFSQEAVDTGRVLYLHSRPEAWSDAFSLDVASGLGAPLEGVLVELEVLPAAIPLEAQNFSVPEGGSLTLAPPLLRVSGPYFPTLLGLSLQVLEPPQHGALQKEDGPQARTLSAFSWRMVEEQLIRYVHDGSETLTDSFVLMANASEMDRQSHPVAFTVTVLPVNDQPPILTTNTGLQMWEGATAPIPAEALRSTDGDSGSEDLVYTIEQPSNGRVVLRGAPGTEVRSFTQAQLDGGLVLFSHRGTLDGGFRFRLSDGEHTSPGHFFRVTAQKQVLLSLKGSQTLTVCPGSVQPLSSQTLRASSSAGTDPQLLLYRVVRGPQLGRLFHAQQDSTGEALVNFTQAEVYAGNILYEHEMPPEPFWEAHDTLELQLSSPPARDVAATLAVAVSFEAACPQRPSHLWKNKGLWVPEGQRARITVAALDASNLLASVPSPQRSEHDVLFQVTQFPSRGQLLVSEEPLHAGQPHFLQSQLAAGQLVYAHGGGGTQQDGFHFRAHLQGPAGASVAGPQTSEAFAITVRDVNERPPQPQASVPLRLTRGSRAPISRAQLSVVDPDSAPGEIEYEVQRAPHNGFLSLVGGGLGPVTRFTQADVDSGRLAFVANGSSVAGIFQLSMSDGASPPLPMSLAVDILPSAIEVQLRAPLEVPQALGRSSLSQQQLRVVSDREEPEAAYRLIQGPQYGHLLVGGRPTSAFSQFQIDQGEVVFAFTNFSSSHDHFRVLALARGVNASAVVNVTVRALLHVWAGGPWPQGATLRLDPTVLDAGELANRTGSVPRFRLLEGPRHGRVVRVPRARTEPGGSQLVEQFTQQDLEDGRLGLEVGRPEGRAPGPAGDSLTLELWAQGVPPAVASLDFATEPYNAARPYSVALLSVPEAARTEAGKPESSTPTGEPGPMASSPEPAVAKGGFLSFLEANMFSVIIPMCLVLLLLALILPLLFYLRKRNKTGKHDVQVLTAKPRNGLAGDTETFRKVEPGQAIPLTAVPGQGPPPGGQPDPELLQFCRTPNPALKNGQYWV
Sequence of CD44 proteoglycan (P16070 other isoform, or with tags, fused parts or gaps limits assumed): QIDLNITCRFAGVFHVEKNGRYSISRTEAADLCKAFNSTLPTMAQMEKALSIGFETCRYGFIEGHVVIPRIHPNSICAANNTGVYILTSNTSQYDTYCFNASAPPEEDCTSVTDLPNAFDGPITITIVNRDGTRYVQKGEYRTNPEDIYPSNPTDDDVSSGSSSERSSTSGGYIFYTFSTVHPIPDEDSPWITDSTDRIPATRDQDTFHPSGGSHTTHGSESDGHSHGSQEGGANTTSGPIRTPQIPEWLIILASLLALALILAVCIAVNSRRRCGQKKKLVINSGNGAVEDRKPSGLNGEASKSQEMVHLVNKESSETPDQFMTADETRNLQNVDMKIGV

DELPQLVTLPHPNLHGPEILDVPST [CS1, reference compound]
Toxic activity on the cells (trypan blue exclusion) ([1]; not shown): not be due to their toxic activity

LQQKKEKDIMKKTI [SG1, LQQKKEKDIMKKTI]
Toxic activity on the cells (trypan blue exclusion) [1]: not be due to their toxic activity

B1: CS1/OVA: CS1 polypeptide chemically conjugated to ovalbumin using EDC (conjugate)
peptide: DELPQLVTLPHPNLHGPEILDVPST
chain: GSIGAASMEFCFDVFKELKVHHANENIFYCPIAIMSALAMVYLGAKDSTRTQINKVVRFDKLPGFGDSIEAQCGTSVNVHSSLRDILNQITKPNDVYSFSLASRLYAEERYPILPEYLQCVKELYRGGLEPINFQTAADQARELINSWVESQTNGIIRNVLQPSSVDSQTAMVLVNAIVFKGLWEKAFKDEDTQAMPFRVTEQESKPVQMMYQIGLFRVASMASEKMKILELPFASGTMSMLVLLPDEVSGLEQLESIINFEKLTEWTSSNVMEERKIKVYLPRMKMEEKYNLTSVLMAMGITDVFSSSANLSGISSAESLKISQAVHAAHAEINEAGREVVGSAEAGVDAASVSEEFRADHPFLFCIKHIATNAVLFFGRCVSP
Coating concentration that promoted half maximal cell adhesion [2]: 5 µg/mL

B2: SG1 polypeptide (peptide)
peptide: LQQKKEKDIMKKTI
modifications: Immobilized on CH-Sepharose (CH-affinity beads) in the affinity chromatography; the coupling to the support is not carried by the letters.
notes: Synthetic peptide; used as soluble peptide in the adhesion assays; also called L-SG1; polypeptide SG1
NaCl concentration at elution [3]: 0.13 to 0.15 M
binding result (CD44 proteoglycan): no binding
